System: K4 kissing-loop RNA reporter
Assay: apparent KD of K4 kissing-loop reporter; higher = weaker reporter binding
Conditions: Eterna round: R107
Method: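 RNA-MaP round R107: designed RNA switches with theophylline, tryptophan, arginine or FMN aptamers are transcribed on-chip within common flanks. They are titrated with a labelled K4 kissing-loop RNA reporter in RNA-MaP buffer (100 mM Tris pH 7.5, 80 mM KCl, 4 mM MgCl2), without ligand or with the indicated ligand. Median apparent KD per design.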

[1] = input ligand: theophylline 20 uM
[2] = input ligand: tryptophan 2.4 mM
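Further: bound reporter read as fluorescence of individual clusters on recovered sequencing chips by microscopy, with normalized cluster intensities fitted with a binding model.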

Row | Sequence | apparent KD of K4 kissing-loop reporter (input ligand: FMN 200 uM) [nM] | apparent KD of K4 kissing-loop reporter (input ligand: arginine 13.2 mM) [nM] | apparent KD of K4 kissing-loop reporter (input ligand: none) [nM] | apparent KD of K4 kissing-loop reporter [1] [nM] | apparent KD of K4 kissing-loop reporter [2] [nM]
1 | AAAACUCGGUAGUGAUGUUAUUGAGUGAACAAGGAUAUCUAUGAUAAGAGAAGGUGUAAGUUAAGCGUAUUUCGGCCUGUACAAU [theeternabot_sameState_KL_FMN_A_34] | 115 | 101 | 114 | 106 | 103
2 | AAAAUAAACUAGUGAUGUUGGUGUCCAGAUACCAGCGACGAAAGUCGCCCUUGGCAGCUGUGGACGUACAAAAUAAGUACGUCCU [MatMod 21 - Jieux - Same State - Theophylline A] | 319 | 183 | 345 | 198 | 289
3 | AAAAUAAAUAGCAGUCACGGAGUGAUGUUCCGAGGACCGGUACGGCCGCCACUCGACCAGACAAAGUCUGGAGGCGGAGACUGCA [#SwitchBubble 20 #K4Early] | 166 | 176 | 193 | 187 | 162
4 | AAAAUAAAUCAGUGAUGUUGGUAUCUGGAUACCAGCGAUAAUCAUCGCCCUUGGCAGCCAUGGACGUACAAAAUAAGUACGUCCU [MatMod 17 - Jieux - Same State - Theophylline A] | 242 | 157 | 180 | 228 | 193
5 | AAAAUAACCCAGUGAUGUUGGUAUCCAGAUACCAGCGACGAAAGUCGCCCUUGGCAGCUGUGGACGUACAAAAUAAGUACGUCCU | 903 | 395 | 403 | 545 | 612
6 | AAAAUAAGCCAGUGAUGUUGGUGUCCAGAUACCAGCGACGAAAGUCGCCCUUGGCAGCUGUGGACGUACAAAAUAAGUACGUCCU | 1030 | 760 | 1140 | 957 | 1120
7 | AAAAUAAUCCAGUGAUGUUGGUAUACAGAUACCAGCGACGAAAGUCGCCCUUGGCAGCUGUGGACGUACAAAAUAAGUACGUCCU | 934 | 972 | 1210 | 592 | 813
8 | AAAAUUAAGGCCGAAUUAACUUCUUGCAUACGAGGACCGGUACGGCCGCCACUCGAGUCAAGUGAUGUUUGACAAUCUAUUAUUA [JR_ExcTryptoA_Sub010] | 81.2 | 124 | 110 | 138 | 128

Reference: the supplement of paper PMC9170038
